Experimental data as given in patent US5849493, “Screening assay for compounds stimulating somatostatin transcription factor -1 binding to an STF-1 binding site” (Research Development Foundation).

What was measured:
STF-1 + Pbx1 heterodimer [1] = target: T1, STF-1 + Pbx1 heterodimer (UniProt P52947;P40424 P52947:1-283,P40424:1-430); experiment: EMSA; no heteromeric complex; conditions: tags: STF-1 recombinant from E. coli; Pbx1 in vitro translated in reticulocyte lysate; label: 32P
Description: (§1) Gel mobility shift assays were performed exactly as described previously (20) using 0.1 ng of end-labeled double stranded oligonucleotide whose sequences are presented in FIG. 2C. For off-rate analysis, the TSEII probe was first incubated with the proteins at room temperature for 30 minutes, then a 1000-fold excess of unlabeled TSEII oligonucleotide was added and aliquots were loaded at various time points on a running gel. In supershift assays, TU6 nuclear cell extract was preincubated with 1 µl of Pbx (11) or STF-antiserum (20) for 15 minutes at room temperature before adding the TSEII probe.
(§2) To determine whether Pbx and STF-1 can bind cooperatively to other STF-1 target sites besides TSEII, gel shift assays were performed with the recombinant STF-1 and Pbx proteins on the somatostatin TSEI or insulin P and Flat elements, sites which bind STF-1 and which are required for islet cell restricted expression of the rat somatostatin and insulin I genes, respectively, in pancreatic cells (FIG. 2D and FIG. 2E). In contrast to the TSEII element (FIG. 2D, lanes 1–4), no heteromeric STF-1-Pbx complex was observed on the TSEI, P or FLAT elements. Indeed, heteromeric STF-1 complexes are also undetectable when the TSEI, P, or FLAT elements are used in gel shift assays of crude pancreatic cell extracts (data not shown) (20).

STF-1 (IPF1/IDX-1/PDX1) [2] = target: T2, STF-1 (IPF1/IDX-1/PDX1) (UniProt P52947 P52947:1-283); experiment: EMSA; conditions: tags: GST fusion (pGEX3X, E. coli), GST removable by factor Xa; label: 32P
T2 sequence (P52947 whole entry, the tested form may be a part, one chain of several): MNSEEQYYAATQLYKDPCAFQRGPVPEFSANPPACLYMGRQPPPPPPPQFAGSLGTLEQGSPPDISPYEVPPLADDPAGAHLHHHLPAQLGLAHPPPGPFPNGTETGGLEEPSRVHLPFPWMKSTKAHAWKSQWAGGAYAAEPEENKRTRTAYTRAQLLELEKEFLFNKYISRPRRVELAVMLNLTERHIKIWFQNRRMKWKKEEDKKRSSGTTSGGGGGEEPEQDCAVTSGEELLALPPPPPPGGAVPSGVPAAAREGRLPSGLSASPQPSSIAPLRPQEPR
Description: as §1, §2

[3] = target: STF-1 FPWMK to AAGGQ mutant (UniProt P52947 P52947:1-283, FPWMK to AAGGQ); experiment: EMSA; wild-type binding activity; conditions: label: 32P
Sequence of STF-1 FPWMK to AAGGQ mutant (P52947 other isoform, or with tags, fused parts or gaps FPWMK to AAGGQ | mutant): as the sequence (P52947 whole entry, the tested form may be a part, one chain of several) above, with F119A, P120A, W121G, M122G, K123Q counted along it

STF-1 + Pbx1 heterodimer [4] = target: T1, STF-1 + Pbx1 heterodimer; experiment: EMSA; no heteromeric complex; no synergy in reporter assay; conditions: tags: STF-1 recombinant from E. coli; Pbx1 in vitro translated in reticulocyte lysate; label: 32P
Description: as §1
as §2, with “(20). […]” for “(20).”

STF-1 (IPF1/IDX-1/PDX1) [5] = target: T2, STF-1 (IPF1/IDX-1/PDX1); experiment: EMSA; high affinity site; conditions: tags: GST fusion (pGEX3X, E. coli), GST removable by factor Xa; label: 32P
STF-1 + Pbx1 heterodimer [6] = target: T1, STF-1 + Pbx1 heterodimer; experiment: EMSA; minimal effect on cooperativity; conditions: tags: STF-1 recombinant from E. coli; Pbx1 in vitro translated in reticulocyte lysate; label: 32P
Source text: Gel mobility shift assay using TSE II oligonucleotide plus STF-1 and/or Pbx as indicated over each lane. TNT, control lysate. […] Off-rate analysis of STF-1 and STF-1 Pbx complexes using somatostatin TSE II oligonucleotide as probe. Time (in minutes) after addition of excess unlabeled TSE II oligo as indicated. Complexes C1 and C2, corresponding to STF-1 monomer and STF-1/PBX heterodimer, respectively, as indicated. […] TSEII, wild-type TSE II oligonucleotide. P and FLAT, insulin I promoter elements which recognize STF-1 with high affinity. TSEI, somatostatin promoter element which binds STF-1. PBX, in vitro translated PBX protein added to binding reactions; STF, full length recombinant STF-1 protein. […] Brackets indicate consensus TAAT motifs which were targeted for mutagenesis. […] Transient transfection assay of GC cells using STF-1 and E2A-Pbx effector plasmids as indicated below each bar. […] Activities were normalized to co-transfected RSV-CAT control plasmid.
as §1, with “In supershift assays, TU6 nuclear cell extract was preincubated with 1 µl of Pbx (11) or STF-antiserum (20) for 15 minutes at room temperature before adding the TSEII probe.” left out

T1 sequence (P52947 whole entry, chain 1 of 2): as the sequence (P52947 whole entry, the tested form may be a part, one chain of several) above
T1 sequence (P40424 whole entry, chain 2 of 2): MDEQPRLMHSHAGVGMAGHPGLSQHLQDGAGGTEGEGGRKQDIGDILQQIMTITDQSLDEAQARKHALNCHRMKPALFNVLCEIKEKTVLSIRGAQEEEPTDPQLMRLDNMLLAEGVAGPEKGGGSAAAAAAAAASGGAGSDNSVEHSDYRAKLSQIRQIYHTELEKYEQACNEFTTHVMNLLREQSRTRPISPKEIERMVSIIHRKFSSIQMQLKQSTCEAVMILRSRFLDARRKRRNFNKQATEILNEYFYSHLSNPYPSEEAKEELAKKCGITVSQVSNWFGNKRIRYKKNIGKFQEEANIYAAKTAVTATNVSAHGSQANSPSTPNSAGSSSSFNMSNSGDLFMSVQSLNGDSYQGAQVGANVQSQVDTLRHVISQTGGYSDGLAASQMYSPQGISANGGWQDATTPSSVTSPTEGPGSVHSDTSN

B1: somatostatin TSEI (dsDNA)
DNA 1: GATCTTGCGAGGCTAATGGTGCG
DNA 2: GTACCGCACCATTAGCCTCGCAA
binding result (STF-1 + Pbx1 heterodimer [1]): no binding
binding result (STF-1 (IPF1/IDX-1/PDX1) [2]): binds

B2: insulin I P element (dsDNA)
DNA 1: GATCTAGAGCCCTTAATGGGCCAAA
DNA 2: GATCTTTGGCCCATTAAGGGCTCTA
binding result [3]: binds
binding result (STF-1 + Pbx1 heterodimer [4]): no binding
binding result (STF-1 (IPF1/IDX-1/PDX1) [5]): binds

B3: TSEII M3 (dsDNA)
DNA 1: GATCTCAGTAATTATACATGCA
DNA 2: GTACTGCATGTATAATTACTGA
binding result (STF-1 + Pbx1 heterodimer [6]): binds
